Test results taken from the supplement of paper PMC9732359.
± gives the uncertainty stated by the source.

Assay: protein stability index of a GFP-peptide fusion (yeast GPS) (PSI 1-4); higher = more stable; sorted into four equal gates, so the index is relative within each strain
Outline: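 The protein stability index combines read frequencies across sorting gates, each weighted by its gate number and then summed. To obtain those frequencies, a pooled yeast library of GFP fusions to tiled 17-residue yeast protein peptides, on a plasmid also expressing Cherry, was grown to mid-log phase in leucine-free medium. The cells were sorted into four equal gates by GFP/Cherry ratio before plasmid amplification by PCR and Illumina sequencing.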

Row | Sequence | protein stability index (doa10∆) | protein stability index (pdr5∆) | protein stability index (san1∆) | protein stability index (ubr1∆)
1 | NSASSAPTPAAPGASVP [SWI1] | 3.04 ± 0.063 | 3.16 ± 0.056 | 3.21 ± 0.057 | 3.03 ± 0.055
2 | FNITDNGVRALFHSCTR [GRR1] | 1.53 ± 0.11 | 2.52 ± 0.088 | 1.09 ± 0.15 | 2.35 ± 0.054
3 | LQNNSDSESDSDSETNH [SKP1] | 2.76 ± 0.065 | 3.19 ± 0.074 | 2.84 ± 0.055 | 2.82 ± 0.082
4 | TQKDSARVSPRNNVANK [YAR002W/NUP60] | 3.22 ± 0.1 | 3.52 ± 0.12 | 3.23 ± 0.096 | 3.02 ± 0.072
5 | ANGIINVKEITEKLKIS [SMC3] | 2.81 ± 0.12 | 2.64 ± 0.099 | 2.75 ± 0.14 | 2.9 ± 0.06
6 | GSEVRLRDDTLPKAWIS [COR1] | 2.49 ± 0.053 | 2.75 ± 0.065 | 2.72 ± 0.075 | 2.69 ± 0.06
7 | NKEMHTDLGKDIPFFPS [SSN2] | 2.34 ± 0.062 | 2.01 ± 0.066 | 2.52 ± 0.066 | 2.76 ± 0.055
8 | KINQERLERRINLTKVT [CSI1] | 1.91 ± 0.062 | 1.96 ± 0.062 | 1.4 ± 0.095 | 1.37 ± 0.045
9 | EDSSILQSIVNEISRNG [PCI8] | 3.13 ± 0.13 | 2.96 ± 0.1 | 3 ± 0.054 | 3.41 ± 0.09
10 | YQELFIQPKNSDDQQEA [YML103C/NUP188] | 2.68 ± 0.066 | 2.31 ± 0.061 | 2.71 ± 0.053 | 2.64 ± 0.054
11 | VKGETRIQNRVKLGLNS [PRP8] | 2.08 ± 0.16 | 2.7 ± 0.15 | 2.23 ± 0.23 | 2.58 ± 0.15
12 | LEKDAADCQAELTKTKS [YIL149C/MLP2] | 2.94 ± 0.13 | 2.76 ± 0.26 | 2.75 ± 0.18 | 2.87 ± 0.1
13 | RGGFGGRNRGRPNRRGP [RPS2] | 3.37 ± 0.095 | 3.28 ± 0.14 | 3.44 ± 0.077 | 3.4 ± 0.13
14 | IHQNAGRLLRAMFEICL [BRR2] | 1.85 ± 0.053 | 1.75 ± 0.054 | 2.21 ± 0.063 | 2.83 ± 0.048
15 | DLMDEELRKHAQKRVSN [SKI6] | 3.38 ± 0.16 | 3.45 ± 0.11 | 2.8 ± 0.085 | 3.21 ± 0.077
16 | VGCIFAELIGLQPIFKG [SSN3] | 3.02 ± 0.085 | 2.42 ± 0.097 | 3.06 ± 0.04 | 2.5 ± 0.094
17 | AICRYANVIKALAFCEI [RRP4] | 1.42 ± 0.069 | 2.04 ± 0.099 | 1.66 ± 0.18 | 2.22 ± 0.072
18 | ENLVVADLESFANNHFL [COR1] | 1.7 ± 0.12 | 2.24 ± 0.18 | 1.97 ± 0.14 | 1.89 ± 0.12
19 | DFPELKPYKQVKQIAPA [FAS2] | 2.29 ± 0.066 | 2.46 ± 0.069 | 2.58 ± 0.07 | 2.66 ± 0.057
20 | SLKALASKYNCDKSVCR [RPL40A] | 3.08 ± 0.069 | 2.97 ± 0.089 | 3.12 ± 0.054 | 2.94 ± 0.087
21 | SKINELSYYVEETNVDI [SMC4] | 3.28 ± 0.17 | 2.98 ± 0.15 | – | 2.99 ± 0.15
22 | FRSLFFRSYMDQEKKYG [RPB2] | 1.7 ± 0.051 | 2.14 ± 0.07 | 2.61 ± 0.078 | 2.57 ± 0.038
23 | DHASIRRGYQVYREVCA [CYT1] | 1.87 ± 0.06 | 1.5 ± 0.052 | 1.27 ± 0.09 | 1.71 ± 0.036
24 | AVTEREVLVTPGLEFLD [MCD1] | 2.85 ± 0.14 | 3.15 ± 0.15 | 2.75 ± 0.089 | 2.94 ± 0.13
25 | MATNKIETLDPALIRPG [RPT2] | 3.23 ± 0.1 | 3.31 ± 0.12 | 2.96 ± 0.081 | 3 ± 0.075
26 | SKAPAEKKPAAKKTSTS [HTB1] | 3.17 ± 0.13 | 3.01 ± 0.069 | 2.83 ± 0.08 | 3.33 ± 0.11
27 | QILENYNALFQQNIKFR [YJL039C/NUP192] | 2.73 ± 0.075 | 2.79 ± 0.065 | 2.86 ± 0.036 | 3.04 ± 0.054

Row | Sequence | protein stability index (doa10∆) | protein stability index (pdr5∆) | protein stability index (san1∆) | protein stability index (ubr1∆)
28 | TGKVSEFISIYSNSHQM [RET1] | 2.83 ± 0.092 | 2.44 ± 0.12 | 3.03 ± 0.11 | 2.72 ± 0.073
29 | ILTSKVNAIKNEVKEWA [DSN1] | 2.64 ± 0.09 | 2.66 ± 0.094 | 3.07 ± 0.072 | 2.82 ± 0.08
30 | KRVHTLLTLIVREYEQP [ISW2] | 3.28 ± 0.23 | 2.55 ± 0.15 | 3.06 ± 0.15 | 3.46 ± 0.18
31 | YNILGNLGIPKIAYRGV [SSN2] | 2.55 ± 0.12 | 2.48 ± 0.12 | 1.55 ± 0.25 | 1.89 ± 0.1
32 | SAAINNEDARAIFNNEF [RPN4] | – | 3.21 ± 0.23 | 3.04 ± 0.27 | –
33 | SLDNKTLDDLVTKWTNQ [YJL041W/NSP1] | 3.08 ± 0.056 | 3.07 ± 0.069 | 3.05 ± 0.062 | 3.17 ± 0.043
34 | DEGMESIEMEEETDDED [RRI2] | – | – | 3.26 ± 0.18 | 3.35 ± 0.14
35 | IEKNVMESIGSDILTAE [RRP4] | 2.78 ± 0.092 | 3.04 ± 0.19 | 2.95 ± 0.2 | –
36 | GIKLQMQNSKVESVCQK [SMC4] | 2.55 ± 0.074 | 2.45 ± 0.077 | 2.59 ± 0.08 | 2.5 ± 0.084
37 | WSFEEVEVKDASLVDYV [RPS5] | 1.32 ± 0.089 | 1.14 ± 0.06 | 1.22 ± 0.14 | 1.17 ± 0.056
38 | SPVRSDSADVPAFSNSN [YMR153W/NUP53] | 3.06 ± 0.096 | 3.07 ± 0.096 | 3.21 ± 0.12 | 2.93 ± 0.057
39 | LPLYEKNTLLERLKQLT [SWP82] | 2.71 ± 0.16 | 2.87 ± 0.088 | 2.73 ± 0.1 | 2.87 ± 0.22
40 | LGLEYIIRLLPINLENN [SRB8] | 1.67 ± 0.07 | 1.33 ± 0.058 | 1.24 ± 0.096 | 1.39 ± 0.061
41 | REQYETQVALNESEKDQ [UBP6] | 3.1 ± 0.069 | 2.66 ± 0.065 | 2.69 ± 0.067 | 2.91 ± 0.051
42 | EDVDDEELDITPLFPID [IRR1] | 2.99 ± 0.19 | 3.36 ± 0.15 | 3 ± 0.1 | 2.95 ± 0.075
43 | RTIANQDHFHRLNYLYQ [RPR2] | 2.64 ± 0.062 | 2.88 ± 0.043 | 2.73 ± 0.034 | 2.58 ± 0.026
44 | KVYAQLLESYKTLSLKS [RPN7] | 2.04 ± 0.062 | 2.56 ± 0.085 | 2 ± 0.11 | 1.32 ± 0.03
45 | DPQHKAIRRDARYNWIC [RPL15A] | 2.86 ± 0.088 | 3.31 ± 0.12 | 2.92 ± 0.16 | 3.11 ± 0.16
46 | KKIGCYMFANLEFSIYH [CSN12] | 2.07 ± 0.071 | 1.95 ± 0.064 | 2.98 ± 0.06 | 2.51 ± 0.052
47 | VILAKNENETRDKVCKQ [PGD1] | 3.45 ± 0.18 | 2.96 ± 0.12 | – | –
48 | EIYKQLNDRQEEISRLQ [YIL149C/MLP2] | 3.42 ± 0.08 | 3.57 ± 0.078 | 3.6 ± 0.041 | 3.38 ± 0.07
49 | GITHFRAGMTHEDEKLI [PRP8] | 2.62 ± 0.079 | 2.47 ± 0.065 | 3.1 ± 0.059 | 3.14 ± 0.044
50 | ILSSVNRTVLLKIFKIF [SRB8] | 1.37 ± 0.083 | 1.42 ± 0.14 | 1.17 ± 0.16 | 1.13 ± 0.093
51 | EHEEKEKERETNKKGIK [RPN2] | 3.32 ± 0.24 | 3.36 ± 0.1 | 3.33 ± 0.16 | 3.4 ± 0.25
52 | TVRVDKASTYGELVLDI [SNF12] | 2.38 ± 0.06 | 2.38 ± 0.053 | 2.02 ± 0.086 | 1.81 ± 0.044
53 | IIKQENFNSVNDANITS [SSN2] | – | 1.1 ± 0.11 | – | –
54 | ALTRGEALLVVLVSSVT [RPS12] | – | 3.63 ± 0.26 | 3.52 ± 0.24 | 3.29 ± 0.26
